Measurements: the supplement of paper PMC11780869

Test system: Bacillus subtilis
Assay: cleaved RNA product abundance (RNA/gDNA barcode ratio) relative to median wild-type variant (ratio to wild type); higher = more accumulation of the downstream cleavage product
Summary of the method: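 Reporter mRNAs (truncated aprE or tetM) carrying barcoded, mutagenized RNase Y cleavage-site windows were made from oligos with a 9% error rate and integrated into the B. subtilis chromosome. Cultures grew in LB at 37°C from OD600 0.0003 to 0.3. Cleaved RNA was gel-selected, reverse transcribed and barcode-sequenced alongside genomic DNA barcodes, with UMI collapsing. Cleaved product abundance is the RNA:gDNA barcode ratio per variant, scaled to the median wild-type variant.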

[1] = experiment (reporter, strain, medium): exp 4a: truncated aprE reporter, strain BJT201 with 2% xylose (RNase J1 expressed), cleavage site: cggR-gapA (positions -7 to +36 mutated)
[2] = experiment (reporter, strain, medium): exp 2b: truncated aprE reporter, strain BJT200, cleavage site: cggR-gapA (positions -7 to +36 mutated)
[3] = experiment (reporter, strain, medium): exp 8a: truncated aprE reporter, strain BJT201 with 2% xylose (RNase J1 expressed), cleavage site: glnRA (positions -5 to +31 mutated)

Row | Sequence | cleaved RNA product abundance [1] | cleaved RNA product abundance [2] | cleaved RNA product abundance [3] | further results
1 | ACAGACGAAGGAGCCGCAAAGAAGTTATTAAGGGATGGATAATACCTCAATATAAATATCTCTCACTTATTTAAA | 0.103 |  |  | 
2 | ACAGACGAAGGAGCCGCAAAAAAGTAATTAAGGGATGAATAATCCCTCAATATAAATATCTCTCACTTATTTAAA | 0.342 | 0.304 |  | 
3 | CGACATGTCCCGCTTCTTTCATTAATCCGTTACCAACTGTTTTGTTATATACATTTACCTTTTAAGAGGAGGAAT |  |  | 0.231 | 
4 | ACAGACGAAGGAGCCGCAAAGAAGTTATTAAGGGATGAATATCCCCTCAATATAAATATCTCTCACTTATTTAAA | 0.455 |  |  | 
5 | CGACATGTCCCGCTTCTTTCATTAATCCGTTAGCAACTGTTTTGCTATATCCATTGACCTTTTAAGAGGAGGAAT |  |  | 0.461 | 
6 | ACAGACGAAGGAGCCGCAAAGAATTTATTAAGGGATGAATACTCCCTCAATATAAATATCTCTCACTTATTTAAA | 0.583 | 0.404 |  | 
7 | ACAGACGAAGGAGCCGCAAAGAAGTTATTAAGGGATAAATGATCCCTCAATATAAATATCTCTCACTTATTTAAA | 0.455 |  |  | 
8 | CGACATGTCCCGCTTCTTTCATTAATCCGTTAGCAACCGTTTTGCTTTATACATTTACCTTTTAAGAGGAGGAAT |  |  | 0.145 | 
9 | CGACATGTCCCGCTTCTTTCATTAAACCGTTAGCAACTGTTTCGCTATATACATTTACCTTTTAAGAGGAGGAAT |  |  | 0.164 | 
10 | CGACATGTCCCGCTTCTTTCATTAATCCGTTAGGAACTGTTTTGCTATACACATTTACCTTTTAAGAGGAGGAAT |  |  | 0.245 | 
11 | ACAGACGAAGGAGCCGCAAACAAGATATTAAGGGATGAATAATCCCTCAATATAAATATCTCTCACTTATTTAAA | 0.827 |  |  | 
12 | CGACATGTCCCGCTTCTTTCATTAATCCGATAGCAAATGTTTTGCTATATACATTTACCTTTTAAGAGGAGGAAT |  |  | 0.41 | 
13 | ACAGACGAAGGAGCCGCAAAGAATTTATTAAGGGATGAATAATCCCTCAATATAAAAATCTCTCACTTATTTAAA | 0.532 |  |  | 
14 | CGACATGTCCCGCTTCTTTCATTAATCCGTTAGCAACTGTTTTGCTAAATACATTTATCTTTTAAGAGGAGGAAT |  |  | 0.814 | 
15 | ACAGACGAAGGAGCCGCAAAAAAGTTATTAAGGGATGAATACTCCCTCAATATAAATATCTCTCACTTATTTAAA | 0.58 | 0.519 |  | 
16 | CGACATGTCCCGCTTCTTTCATTAATCCGATAGCAACTGTTTTGCTATATACATTTACTTTTTAAGAGGAGGAAT |  |  | 0.547 | 
17 | ACAGACGAAGGAGCCGCAAAGGAGCTATTAAGGGATGAATAATCCCTCAATATAAATATCTCTCACTTATTTAAA |  | 0.502 |  | 
18 | CGACATGTCCCGCTTCTTTCATTACTACCTTAGCAACTGTTTTGCTATATACATTTACCTTTTAAGAGGAGGAAT |  |  | 0.4 | 
19 | ACAGACGAAGGAGCCGCAAAGAAGTCATTAAGCGATGAATAATCCCTCAATATAAATATCTCTCACTTATTTAAA | 0.0665 |  |  | 
20 | ACAGACGAAGGAGCCGCAAAGAAGTTATTAAAGGATGAAGAATCCCTCAATATAAATATCTCTCACTTATTTAAA | 0.232 |  |  | 
21 | ACAGACGAAGGAGCCGCAAAGAAGTTATTAAGGGATGATTAATCCCTCAATATCAATATCTCTCACTTATTTAAA | 0.0525 |  |  | 
22 | ACAGACGAAGGAGCCGCAAAGAAGATGTTAAGGGATGAATAATCCCTCAATATAAATATCTCTCACTTATTTAAA | 0.741 | 0.513 |  | 
23 | CGACATGTCCCGCTTCTTTCATTAATCCGTTAGCAACTGTTTTGCTATATATATTTACCTTTTAAGAGGAGGAAT |  |  | 1.03 | 
24 | ACAGACGAAGGAGCCGCAAAGAAGTTATTAAGGGAAGAATAATCCCTCAACATAAATATCTCTCACTTATTTAAA | 0.257 | 0.133 |  | 
25 | ACAGACGAAGGAGCCGCAAAGAAGTTATTAAGGGATCAATAATCCCTGAATATAAATATCTCTCACTTATTTAAA | 0.61 | 0.512 |  | 
26 | CGACATGTCCCGCTTCTTTCATTAATCTGTAAGCAACTGTTTTGCTATATACATTTACCTTTTAAGAGGAGGAAT |  |  | 0.539 | 
27 | ACAGACGAAGGAGCCGCAAACAAGTGATTAAGGGATGAATAATCCCTCAATATAAATATCTCTCACTTATTTAAA | 0.27 | 0.223 |  | 

Row | Sequence | cleaved RNA product abundance [1] | cleaved RNA product abundance [2] | cleaved RNA product abundance [3] | further results
28 | ACAGACGAAGGAGCCGCAAATAAGTTATTAAGGGATGAATAATCCCTCAAGATAAATATCTCTCACTTATTTAAA | 0.373 |  |  | 
29 | CGACATGTCCCGCTTCTTTCATTAATCCGTTACCAACTGTTTTGCTACATACATTTACCTTTTAAGAGGAGGAAT |  |  | 0.326 | 
30 | CGACATGTCCCGCTTCTTTCATTACTCCGTTAGCAACTGTTTTGCTTTATACATATACCTTTTAAGAGGAGGAAT |  |  | 0.58 | 
31 | ACAGACGAAGGAGCCGCAAAGAAATTATTAAGGGATGAATAATCTCTCAATATAAATATCTCTCACTTATTTAAA | 0.476 |  |  | 
32 | ACAGACGAAGGAGCCGCAAAGAAGTTATTTAGGGATGAATAATCCCTAAATATAAATATCTCTCACTTATTTAAA |  | 0.353 |  | 
33 | CGACATGTCCCGCTTCTTTCATTACTCCGTTAGCAACTGCTTTGCTATATACATTTACCTTTTAAGAGGAGGAAT |  |  | 0.597 | 
34 | CGACATGTCCCGCTTCTTTCATTAATCCGTTAGCAACTGTATTGCTATATACATTTACCCTTTAAGAGGAGGAAT |  |  | 1.1 | 
35 | CGACATGTCCCGCTTCTTTCATTAATCCGTTGGCAACTGTTTTGCTATAAACATTTACCTTTTAAGAGGAGGAAT |  |  | 0.509 | 
36 | ACAGACGAAGGAGCCGCAAAGATGTTATTAAGGGATGAATAATCCCTCAATATAAATACCTCTCACTTATTTAAA |  | 0.71 |  | 
37 | CGACATGTCCCGCTTCTTTCATTAATCAGTTAGCAACTGTTTTGCTATATACATTTACCCTTTAAGAGGAGGAAT |  |  | 1.22 | 
38 | CGACATGTCCCGCTTCTTTCATTAATCCGTTAGCAACTGTTTTGCTATATAGATTTACCTTTTAAGAGGAGGAAT |  |  | 1.11 | 
39 | ACAGACGAAGGAGCCGCAAAGAAGTTATTAAGGGATGAATGATCCCTAAATATAAATATCTCTCACTTATTTAAA | 0.488 |  |  | 
40 | ACAGACGAAGGAGCCGCAAAGAAGTTATTAAGGGATGAACAATCCCTCATTATAAATATCTCTCACTTATTTAAA | 0.321 | 0.22 |  | 
41 | ACAGACGAAGGAGCCGCAGAGAAGTTATTAAGGGATGAATAATCCCTCAGTATAAATATCTCTCACTTATTTAAA | 0.337 |  |  | 
42 | ACAGACGAAGGAGCCGCAAAGATGTTATTAACGGATGAATAATCCCTCAATATAAATATCTCTCACTTATTTAAA | 0.151 | 0.104 |  | 
43 | CGACATGTCCCGCTTCTTTCATTAATCCGTTAGCAACTGTTTTCCTATATACATTAACCTTTTAAGAGGAGGAAT |  |  | 0.43 | 
44 | ACAGACGAAGGAGCCGCAAAGAAGTTATTAACGGATGAATAAACCCTCAATATAAATATCTCTCACTTATTTAAA | 0.12 | 0.0962 |  | 
45 | CGACATGTCCCGCTTCTTTCATTACTCCGTTAGCAACTGTTTTGCTATATACATCTACCTTTTAAGAGGAGGAAT |  |  | 0.75 | 
46 | CGACATGTCCCGCTTCTTTCATTAATCAGTTATCAACTGTTTTGCTATATACATTTACCTTTTAAGAGGAGGAAT |  |  | 0.307 | 
47 | ACAGACGAAGGAGCCGCAAAGAAGTTATTAAGGGATGAATAATCCCACAATATAAATATCTCTCACTTATTTAAA | 0.279 | 0.204 |  | cleaved RNA product abundance (experiment (reporter, strain, medium): exp 6: tetM reporter, strain 168, cleavage site: cggR-gapA (positions -7 to +36 mutated)): 0.271
48 | CGACATGTCCCGCTTCTTTCATTAATCCTATAGCAACTGTTTTGCTATATACATTTACCTTTTAAGAGGAGGAAT |  |  | 0.458 | 
49 | ACAGACGAAGGAGCCGCAAAGAAATTATTAAGGGATGAATAATCCATCAAGATAAATATCTCTCACTTATTTAAA | 0.118 |  |  | 
50 | ACAGACGAAGGAGCCGCAAAGAAATTATAAAGGGATGAATAATCCCTCAATATAAATATCTCTCACTTATTTAAA | 0.342 | 0.215 |  | 
51 | ACAGACGAAGGAGCCGCAAAGAAGTTATTAAGGGATGAATAATCCATCAATATAAATCTCTCTCACTTATTTAAA | 0.17 |  |  | 
52 | ACAGACGAAGGAGCCGCAAATAAGTTATTAAGGGATGAATATTCCCTCAATATAAATATCTCTCACTTATTTAAA | 1.07 | 0.769 |  | 
53 | ACAGACGAAGGAGCCGCAAAGAAGTTATTAGGGGATGGATAATCCCTCAATATAAATATCTCTCACTTATTTAAA | 0.709 | 0.481 |  | 
54 | CGACATGTCCCGCTTCTTTCATTAATCCGTTAGCAACTGTTTTTATATATACATTTACCTTTTAAGAGGAGGAAT |  |  | 0.669 | 
